Test results as given in paper PMC8204860, “Structural basis of [sequence]‐mediated Rab1 activation” (The EMBO Journal, 2021).

Target: T1, Trs31 (Saccharomyces cerevisiae, UniProt Q03337 1-283)
T1 construct: Trs31, TRAPP core subunit, S. cerevisiae; also called Trs31 subunit
T1 sequence: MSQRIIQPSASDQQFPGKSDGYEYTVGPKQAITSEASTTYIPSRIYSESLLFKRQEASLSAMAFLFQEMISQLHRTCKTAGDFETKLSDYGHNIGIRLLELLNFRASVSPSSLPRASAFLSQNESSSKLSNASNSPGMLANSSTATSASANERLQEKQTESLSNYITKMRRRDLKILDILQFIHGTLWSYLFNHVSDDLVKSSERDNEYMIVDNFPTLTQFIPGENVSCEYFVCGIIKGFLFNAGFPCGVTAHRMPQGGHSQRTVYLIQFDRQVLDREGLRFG
Experiment: cryo-EM structure; TRAPPIII (after anion exchange) mixed 1:3 with Ypt1-7xHis, overnight at 4°C with calf intestinal alkaline phosphatase, complex isolated by SEC in 10 mM Tris pH 7.5, 350 mM NaCl, 1 mM DTT; 3.7 Å reconstruction
Settings: both partners purified

B1: Rab1/Ypt1 (Ypt1-7xHis) (natural protein)
chain: not shown
notes: Rab1/Ypt1, budding yeast GTPase; Made nucleotide-free in the complex by alkaline phosphatase. pGEX-6P backbone; gift from the T. Bretscher laboratory; also called GST-Ypt1-7xHis (before cleavage); source: E. coli Rosetta2, purified (glutathione resin, eluted by PreScission cleavage of GST); not shown: GST, N-terminal, cleaved
Does B1 bind?
Result: binds
